Measured values as given in patent publication US20240400654A1.
Where “and” joins values, the source holds several entries; their conditions need not be identical. Equal entries are not always repeated.

Molecular target: HRgpA-6H (Porphyromonas gingivalis) (UniProt P28784)
Test: ELISA, coated HRgpA-6H

Sequence of UniProt P28784 (P28784 228-860 limits assumed): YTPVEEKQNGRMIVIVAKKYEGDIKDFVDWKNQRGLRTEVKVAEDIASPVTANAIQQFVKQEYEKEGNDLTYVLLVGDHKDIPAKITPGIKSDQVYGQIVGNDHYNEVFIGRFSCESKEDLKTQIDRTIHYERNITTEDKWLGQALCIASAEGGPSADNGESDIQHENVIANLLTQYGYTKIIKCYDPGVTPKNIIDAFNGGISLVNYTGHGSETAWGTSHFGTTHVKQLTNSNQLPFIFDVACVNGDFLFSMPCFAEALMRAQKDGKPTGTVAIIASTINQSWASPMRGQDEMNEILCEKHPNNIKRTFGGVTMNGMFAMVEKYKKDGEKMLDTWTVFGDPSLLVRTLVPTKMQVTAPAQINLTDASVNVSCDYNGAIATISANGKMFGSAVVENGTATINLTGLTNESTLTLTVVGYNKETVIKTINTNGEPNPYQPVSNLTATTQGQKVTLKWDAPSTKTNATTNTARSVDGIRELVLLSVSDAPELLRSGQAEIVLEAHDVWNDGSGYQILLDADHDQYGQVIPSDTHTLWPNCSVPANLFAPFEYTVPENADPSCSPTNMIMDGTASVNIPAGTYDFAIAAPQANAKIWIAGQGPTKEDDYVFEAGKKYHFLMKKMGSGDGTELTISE

| Binder | OD450 nm | Ratio OD(Variant)/OD(WT) |
| --- | --- | --- |
| KB001 mouse Fab VL T24K (Fab, V domains shown) VH: EVQLKQSGPGLVAPSQSLSITCTVSGFSLSIYSVHWVRQPPGKGLEWLGMIWGGGSSDYNSALKSRLSISKDNSKSQVFLKMNSLQTDDTAMYYCARNGNFYAMDYWGQGTSVTVSS VL: QIVLTQSPAIMSASLGERVTMTCKASSSVSSSFLHWYQQKPGSSPQLWIYSTSNLASGVPARFSGSGSGTSYSLTISSMEAEDAATYYCHQYHHSPYIYTFGGGTKLEIK | 0.797 and 0.734 | 1.04 and 0.954 |
| KB001 mouse Fab VL S26D (Fab, V domains shown) VH: EVQLKQSGPGLVAPSQSLSITCTVSGFSLSIYSVHWVRQPPGKGLEWLGMIWGGGSSDYNSALKSRLSISKDNSKSQVFLKMNSLQTDDTAMYYCARNGNFYAMDYWGQGTSVTVSS VL: QIVLTQSPAIMSASLGERVTMTCTADSSVSSSFLHWYQQKPGSSPQLWIYSTSNLASGVPARFSGSGSGTSYSLTISSMEAEDAATYYCHQYHHSPYIYTFGGGTKLEIK | 0.821 | 1.05 |
| KB001 mouse Fab VL S31F (Fab, V domains shown) VH: EVQLKQSGPGLVAPSQSLSITCTVSGFSLSIYSVHWVRQPPGKGLEWLGMIWGGGSSDYNSALKSRLSISKDNSKSQVFLKMNSLQTDDTAMYYCARNGNFYAMDYWGQGTSVTVSS VL: QIVLTQSPAIMSASLGERVTMTCTASSSVSFSFLHWYQQKPGSSPQLWIYSTSNLASGVPARFSGSGSGTSYSLTISSMEAEDAATYYCHQYHHSPYIYTFGGGTKLEIK | 0.854 and 0.688 and 0.693 | 1.01 and 0.814 and 0.82 |
| KB001 mouse Fab VL S31Y (Fab, V domains shown) VH: EVQLKQSGPGLVAPSQSLSITCTVSGFSLSIYSVHWVRQPPGKGLEWLGMIWGGGSSDYNSALKSRLSISKDNSKSQVFLKMNSLQTDDTAMYYCARNGNFYAMDYWGQGTSVTVSS VL: QIVLTQSPAIMSASLGERVTMTCTASSSVSYSFLHWYQQKPGSSPQLWIYSTSNLASGVPARFSGSGSGTSYSLTISSMEAEDAATYYCHQYHHSPYIYTFGGGTKLEIK | 0.849 | 1 |
| KB001 mouse Fab VL S28W (Fab, V domains shown) VH: EVQLKQSGPGLVAPSQSLSITCTVSGFSLSIYSVHWVRQPPGKGLEWLGMIWGGGSSDYNSALKSRLSISKDNSKSQVFLKMNSLQTDDTAMYYCARNGNFYAMDYWGQGTSVTVSS VL: QIVLTQSPAIMSASLGERVTMTCTASSWVSSSFLHWYQQKPGSSPQLWIYSTSNLASGVPARFSGSGSGTSYSLTISSMEAEDAATYYCHQYHHSPYIYTFGGGTKLEIK | 0.817 and 0.745 | 1.09 and 0.993 |
| KB001 mouse Fab VL S31P (Fab, V domains shown) VH: EVQLKQSGPGLVAPSQSLSITCTVSGFSLSIYSVHWVRQPPGKGLEWLGMIWGGGSSDYNSALKSRLSISKDNSKSQVFLKMNSLQTDDTAMYYCARNGNFYAMDYWGQGTSVTVSS VL: QIVLTQSPAIMSASLGERVTMTCTASSSVSPSFLHWYQQKPGSSPQLWIYSTSNLASGVPARFSGSGSGTSYSLTISSMEAEDAATYYCHQYHHSPYIYTFGGGTKLEIK | 0.87 and 0.875 and 0.856 | 1.03 and 1.04 and 1.01 |
| KB001 mouse Fab VL A25T (Fab, V domains shown) VH: EVQLKQSGPGLVAPSQSLSITCTVSGFSLSIYSVHWVRQPPGKGLEWLGMIWGGGSSDYNSALKSRLSISKDNSKSQVFLKMNSLQTDDTAMYYCARNGNFYAMDYWGQGTSVTVSS VL: QIVLTQSPAIMSASLGERVTMTCTTSSSVSSSFLHWYQQKPGSSPQLWIYSTSNLASGVPARFSGSGSGTSYSLTISSMEAEDAATYYCHQYHHSPYIYTFGGGTKLEIK | 0.823 and 0.801 | 1.05 and 1.02 |
| KB001 mouse Fab VL S30G (Fab, V domains shown) VH: EVQLKQSGPGLVAPSQSLSITCTVSGFSLSIYSVHWVRQPPGKGLEWLGMIWGGGSSDYNSALKSRLSISKDNSKSQVFLKMNSLQTDDTAMYYCARNGNFYAMDYWGQGTSVTVSS VL: QIVLTQSPAIMSASLGERVTMTCTASSSVGSSFLHWYQQKPGSSPQLWIYSTSNLASGVPARFSGSGSGTSYSLTISSMEAEDAATYYCHQYHHSPYIYTFGGGTKLEIK | 0.916 and 0.858 | 1.06 and 0.995 |
| KB001 mouse Fab VL S31T (Fab, V domains shown) VH: EVQLKQSGPGLVAPSQSLSITCTVSGFSLSIYSVHWVRQPPGKGLEWLGMIWGGGSSDYNSALKSRLSISKDNSKSQVFLKMNSLQTDDTAMYYCARNGNFYAMDYWGQGTSVTVSS VL: QIVLTQSPAIMSASLGERVTMTCTASSSVSTSFLHWYQQKPGSSPQLWIYSTSNLASGVPARFSGSGSGTSYSLTISSMEAEDAATYYCHQYHHSPYIYTFGGGTKLEIK | 0.859 and 0.74 and 0.782 | 1.02 and 0.876 and 0.925 |
| KB001 mouse Fab VL S26N (Fab, V domains shown) VH: EVQLKQSGPGLVAPSQSLSITCTVSGFSLSIYSVHWVRQPPGKGLEWLGMIWGGGSSDYNSALKSRLSISKDNSKSQVFLKMNSLQTDDTAMYYCARNGNFYAMDYWGQGTSVTVSS VL: QIVLTQSPAIMSASLGERVTMTCTANSSVSSSFLHWYQQKPGSSPQLWIYSTSNLASGVPARFSGSGSGTSYSLTISSMEAEDAATYYCHQYHHSPYIYTFGGGTKLEIK | 0.823 and 0.749 | 1.05 and 0.957 |
| KB001 mouse Fab VL S51G (Fab, V domains shown) VH: EVQLKQSGPGLVAPSQSLSITCTVSGFSLSIYSVHWVRQPPGKGLEWLGMIWGGGSSDYNSALKSRLSISKDNSKSQVFLKMNSLQTDDTAMYYCARNGNFYAMDYWGQGTSVTVSS VL: QIVLTQSPAIMSASLGERVTMTCTASSSVSSSFLHWYQQKPGSSPQLWIYGTSNLASGVPARFSGSGSGTSYSLTISSMEAEDAATYYCHQYHHSPYIYTFGGGTKLEIK | 0.915 and 0.777 and 0.851 | 1.05 and 0.888 and 0.973 |
| KB001 mouse Fab VL S28G (Fab, V domains shown) VH: EVQLKQSGPGLVAPSQSLSITCTVSGFSLSIYSVHWVRQPPGKGLEWLGMIWGGGSSDYNSALKSRLSISKDNSKSQVFLKMNSLQTDDTAMYYCARNGNFYAMDYWGQGTSVTVSS VL: QIVLTQSPAIMSASLGERVTMTCTASSGVSSSFLHWYQQKPGSSPQLWIYSTSNLASGVPARFSGSGSGTSYSLTISSMEAEDAATYYCHQYHHSPYIYTFGGGTKLEIK | 0.818 | 1.09 |
| KB001 mouse Fab VL S31E (Fab, V domains shown) VH: EVQLKQSGPGLVAPSQSLSITCTVSGFSLSIYSVHWVRQPPGKGLEWLGMIWGGGSSDYNSALKSRLSISKDNSKSQVFLKMNSLQTDDTAMYYCARNGNFYAMDYWGQGTSVTVSS VL: QIVLTQSPAIMSASLGERVTMTCTASSSVSESFLHWYQQKPGSSPQLWIYSTSNLASGVPARFSGSGSGTSYSLTISSMEAEDAATYYCHQYHHSPYIYTFGGGTKLEIK | 0.903 and 0.798 | 1.07 and 0.944 |
| KB001 mouse Fab VL S30F (Fab, V domains shown) VH: EVQLKQSGPGLVAPSQSLSITCTVSGFSLSIYSVHWVRQPPGKGLEWLGMIWGGGSSDYNSALKSRLSISKDNSKSQVFLKMNSLQTDDTAMYYCARNGNFYAMDYWGQGTSVTVSS VL: QIVLTQSPAIMSASLGERVTMTCTASSSVFSSFLHWYQQKPGSSPQLWIYSTSNLASGVPARFSGSGSGTSYSLTISSMEAEDAATYYCHQYHHSPYIYTFGGGTKLEIK | 0.911 | 1.06 |
| KB001 mouse Fab VL S28V (Fab, V domains shown) VH: EVQLKQSGPGLVAPSQSLSITCTVSGFSLSIYSVHWVRQPPGKGLEWLGMIWGGGSSDYNSALKSRLSISKDNSKSQVFLKMNSLQTDDTAMYYCARNGNFYAMDYWGQGTSVTVSS VL: QIVLTQSPAIMSASLGERVTMTCTASSVVSSSFLHWYQQKPGSSPQLWIYSTSNLASGVPARFSGSGSGTSYSLTISSMEAEDAATYYCHQYHHSPYIYTFGGGTKLEIK | 0.786 and 0.731 and 0.717 | 1.05 and 0.974 and 0.955 |
| KB001 mouse Fab VL S27K (Fab, V domains shown) VH: EVQLKQSGPGLVAPSQSLSITCTVSGFSLSIYSVHWVRQPPGKGLEWLGMIWGGGSSDYNSALKSRLSISKDNSKSQVFLKMNSLQTDDTAMYYCARNGNFYAMDYWGQGTSVTVSS VL: QIVLTQSPAIMSASLGERVTMTCTASKSVSSSFLHWYQQKPGSSPQLWIYSTSNLASGVPARFSGSGSGTSYSLTISSMEAEDAATYYCHQYHHSPYIYTFGGGTKLEIK | 0.783 and 0.745 and 0.697 | 1.04 and 0.993 and 0.929 |
| KB001 mouse Fab VL T24E (Fab, V domains shown) VH: EVQLKQSGPGLVAPSQSLSITCTVSGFSLSIYSVHWVRQPPGKGLEWLGMIWGGGSSDYNSALKSRLSISKDNSKSQVFLKMNSLQTDDTAMYYCARNGNFYAMDYWGQGTSVTVSS VL: QIVLTQSPAIMSASLGERVTMTCEASSSVSSSFLHWYQQKPGSSPQLWIYSTSNLASGVPARFSGSGSGTSYSLTISSMEAEDAATYYCHQYHHSPYIYTFGGGTKLEIK | 0.852 and 0.81 | 1.11 and 1.05 |
| KB001 mouse Fab VL S28P (Fab, V domains shown) VH: EVQLKQSGPGLVAPSQSLSITCTVSGFSLSIYSVHWVRQPPGKGLEWLGMIWGGGSSDYNSALKSRLSISKDNSKSQVFLKMNSLQTDDTAMYYCARNGNFYAMDYWGQGTSVTVSS VL: QIVLTQSPAIMSASLGERVTMTCTASSPVSSSFLHWYQQKPGSSPQLWIYSTSNLASGVPARFSGSGSGTSYSLTISSMEAEDAATYYCHQYHHSPYIYTFGGGTKLEIK | 0.808 and 0.726 | 1.08 and 0.967 |
| KB001 mouse Fab VL S28K (Fab, V domains shown) VH: EVQLKQSGPGLVAPSQSLSITCTVSGFSLSIYSVHWVRQPPGKGLEWLGMIWGGGSSDYNSALKSRLSISKDNSKSQVFLKMNSLQTDDTAMYYCARNGNFYAMDYWGQGTSVTVSS VL: QIVLTQSPAIMSASLGERVTMTCTASSKVSSSFLHWYQQKPGSSPQLWIYSTSNLASGVPARFSGSGSGTSYSLTISSMEAEDAATYYCHQYHHSPYIYTFGGGTKLEIK | 0.801 | 1.07 |
| KB001 mouse Fab VL A25F (Fab, V domains shown) VH: EVQLKQSGPGLVAPSQSLSITCTVSGFSLSIYSVHWVRQPPGKGLEWLGMIWGGGSSDYNSALKSRLSISKDNSKSQVFLKMNSLQTDDTAMYYCARNGNFYAMDYWGQGTSVTVSS VL: QIVLTQSPAIMSASLGERVTMTCTFSSSVSSSFLHWYQQKPGSSPQLWIYSTSNLASGVPARFSGSGSGTSYSLTISSMEAEDAATYYCHQYHHSPYIYTFGGGTKLEIK | 0.818 and 0.827 and 0.775 | 1.04 and 1.06 and 0.99 |
| KB001 mouse Fab VL T24H (Fab, V domains shown) VH: EVQLKQSGPGLVAPSQSLSITCTVSGFSLSIYSVHWVRQPPGKGLEWLGMIWGGGSSDYNSALKSRLSISKDNSKSQVFLKMNSLQTDDTAMYYCARNGNFYAMDYWGQGTSVTVSS VL: QIVLTQSPAIMSASLGERVTMTCHASSSVSSSFLHWYQQKPGSSPQLWIYSTSNLASGVPARFSGSGSGTSYSLTISSMEAEDAATYYCHQYHHSPYIYTFGGGTKLEIK | 0.795 | 1.03 |
